Test results published in paper PMC6821881 (2019).
Substitutions are numbered along the chain they refer to.

Tests used:
ZIKV E protein (GZ01) = ZIKV E protein (GZ01) (Zika virus (strain GZ01)); experiment: ELISA
[1] = target: T1, ZIKV E DIII protein (residues 301-403) (Zika virus (strain GZ01)); experiment: ELISA
T1 chain: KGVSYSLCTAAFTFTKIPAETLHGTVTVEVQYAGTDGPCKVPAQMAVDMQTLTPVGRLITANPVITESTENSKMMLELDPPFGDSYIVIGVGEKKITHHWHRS

B1: 2L-1 (antibody, V domains shown)
VH: EVQLVQSGAEVKKPGASVKVSCKASGYTFTSGHTFPSYDINWVRQATGQGLEWMGWMNPNRGNTGYAQKFQGRVTMTRNTSINTAYMELSSLRSEDTAVYYCARVRSGTNYGSYYYYYYGMDVWGQGTTVTVSS
VL: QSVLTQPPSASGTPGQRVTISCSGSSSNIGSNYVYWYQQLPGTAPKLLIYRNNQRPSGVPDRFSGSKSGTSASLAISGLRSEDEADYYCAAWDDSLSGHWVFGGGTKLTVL
With B1 the EC50 (ZIKV E protein (GZ01)) was greater than 500 ng/mL and the EC50 [1] was greater than 0.5 µg/mL.

B2: 2L-9 (antibody, V domains shown)
VH: B1 VH
VL: SSVLTQPPSASGTPGQRVTISCSGSSTNIGSNYAYWYQYLPGTAPKLLIYRNNQRPSGVPDRFSGFKSGTSASLAVSGLRSEDEADYYCAAWDDSLSGHWVFGGGTKLTVL
Work on B2 yielded an EC50 (ZIKV E protein (GZ01)) greater than 500 ng/mL and an EC50 [1] greater than 0.5 µg/mL.

B3: 2L-6 (antibody, V domains shown)
VH: B1 VH
VL: SVLQPQPPSASRHPGQRVTISCLHGSSSNIGNNYVSWYQQLPGTDPKLLIYRNNHAASGVPDRFSGSKSGTSASLAISGLRSEDEADYYCAAWDDSLSGHWVFGGGTKLTVL
B3 was tested, and the EC50 (ZIKV E protein (GZ01)) was 356 ng/mL and the EC50 [1] was 0.335 µg/mL.

B4: 2H-15 (antibody, V domains shown)
VH: EVQLVQSGAEVKKPGASVKVSCKASGYTFTSYDVNWVRQATGQGLEWMGWMNPNSGNTGYAQKFQGRVTMTRNTSISTAYMELSSLRSEDTAVYYCARVSSGSYYGSYYYYYYGMDVWGQGTTVTVSS
VL: SYELTQPPSASGTPGQRVTISCSGSSSNIGNNYVHWYQQLPGSAPKLLIYRNNQRPSGVPDRFSGSKSGTSGSLAISGLRSEDEADYYCASWDDSLSGHWVFGGGTKVTVL
For B4, the EC50 (ZIKV E protein (GZ01)) was 7.5 ng/mL and the EC50 [1] was 0.01 µg/mL.

B5: 2L-11 (antibody, V domains shown)
VH: B1 VH
VL: B2 VL with S1Y, Q6D, P7H, T27S, A34V, Y39E, R51N, F66S, V76I, D86Y
B5 was tested, and the EC50 (ZIKV E protein (GZ01)) was greater than 500 ng/mL and the EC50 [1] was greater than 0.5 µg/mL.

B6: 2H-6 (antibody, V domains shown)
VH: B4 VH with M51L, Q62E
VL: B4 VL
Work on B6 yielded an EC50 (ZIKV E protein (GZ01)) of 4.6 ng/mL and an EC50 [1] of 0.0039 µg/mL.

B7: 2H-9 (antibody, V domains shown)
VH: B4 VH with A9G, E10K, K12V, K13E, P14L, S31T, V34I
VL: B4 VL
Work on B7 yielded an EC50 (ZIKV E protein (GZ01)) of 4.2 ng/mL and an EC50 [1] of 0.0059 µg/mL.

B8: 2H-1 (antibody, V domains shown)
VH: B4 VH with E1Q, V34I
VL: B4 VL
Work on B8 yielded an EC50 (ZIKV E protein (GZ01)) of 5.3 ng/mL and an EC50 [1] of 0.0034 µg/mL.

B9: 2H-16 (antibody, V domains shown)
VH: B4 VH with E1Q, V34I, Y60C
VL: B4 VL
For B9, the EC50 (ZIKV E protein (GZ01)) was 5.8 ng/mL and the EC50 [1] was 0.0041 µg/mL.

B10: 2H-2 (antibody, V domains shown)
VH: QVQLVQSGAEVKKPGSSVKVSCKASGGTFSSYAISWVRQATGQGLEWMGGIIPIFGTANYAQKFQGRVTITADESTSTAYMELSSLRSEDTAVYYCARVSSGSYYGSYYYYYYGMDVWGQGTTVTVSS
VL: B4 VL
Work on B10 yielded an EC50 (ZIKV E protein (GZ01)) greater than 500 ng/mL and an EC50 [1] greater than 0.5 µg/mL.

B11: 2H-5 (antibody, V domains shown)
VH: B4 VH with E1Q, K19N, S31M, V34I, A40T
VL: B4 VL
Work on B11 yielded an EC50 (ZIKV E protein (GZ01)) of 6.2 ng/mL and an EC50 [1] of 0.0048 µg/mL.

B12: ZK2B10 (antibody, V domains shown)
VH: B1 VH
VL: B4 VL
B12 showed an EC50 (ZIKV E protein (GZ01)) of 3.3 ng/mL and an EC50 [1] of 0.0071 µg/mL.

B13: 2L-8 (antibody, V domains shown)
VH: B1 VH
VL: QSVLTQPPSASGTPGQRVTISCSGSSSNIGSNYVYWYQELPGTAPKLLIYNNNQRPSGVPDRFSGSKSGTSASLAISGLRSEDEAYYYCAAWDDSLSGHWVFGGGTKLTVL
Binder B13 has an EC50 (ZIKV E protein (GZ01)) greater than 500 ng/mL and an EC50 [1] greater than 0.5 µg/mL.

B14: 2H-10 (antibody, V domains shown)
VH: B4 VH with E1Q, A9V, K19E, K23Q, Y27I, F29S, V34I, T41N
VL: B4 VL
B14 was tested, and the EC50 (ZIKV E protein (GZ01)) was 5.2 ng/mL and the EC50 [1] was 0.0112 µg/mL.

B15: 2H-4 (antibody, V domains shown)
VH: B4 VH with E1Q, A9R, A24G, V34I, T41P, E89G
VL: B4 VL
In the case of B15, the EC50 (ZIKV E protein (GZ01)) is reported as 6.5 ng/mL and the EC50 [1] is reported as 0.0084 µg/mL.

B16: 2H-3 (antibody, V domains shown)
VH: B4 VH with E1Q, A9R, D33E, V34I
VL: B4 VL
With B16 the EC50 (ZIKV E protein (GZ01)) was 23.7 ng/mL and the EC50 [1] was 0.039 µg/mL.

B17: 2H-14 (antibody, V domains shown)
VH: B4 VH with E1Q, Q3H, L4A, D33G, V34I
VL: B4 VL
B17 was tested, and the EC50 (ZIKV E protein (GZ01)) was 242 ng/mL and the EC50 [1] was 0.215 µg/mL.

B18: 2L-3 (antibody, V domains shown)
VH: B1 VH
VL: B2 VL with S1Q, Q6H, P7R, T27S, A34G, Y39Q, F66S, V76I
With B18 the EC50 (ZIKV E protein (GZ01)) was greater than 500 ng/mL and the EC50 [1] was greater than 0.5 µg/mL.

B19: 2L-2 (antibody, V domains shown)
VH: B1 VH
VL: B2 VL with S1Q, Q6H, P7R, T13H, T27S, S31N, A34V, Y39Q, F66S, V76I
In the case of B19, the EC50 (ZIKV E protein (GZ01)) is reported as 216 ng/mL and the EC50 [1] is reported as 0.267 µg/mL.
